{"source": "patent US20240350583A1", "about": "“COMPOSITION FOR PREVENTING OR TREATING FIBROTIC DISEASES, COMPRISING HAPLN1” (Chung Ang University Industry Academic Cooperation …, priority 2021, published 2024)", "key": {"[1]": {"tested_on": "human colon fibroblast cell line (CCD-18Co)", "experiment": "TGFβ1-induced fibrosis of human colon fibroblast cell line, αSMA western blot", "format": "cell-based", "description": "(1) A human colon fibroblast cell line (CCD-18Co (human colon fibroblast cell line; ATCC, CRL-1459)) was seeded (1.5×10^5 cells/well) in a 6-well plate according to the experimental scheme in FIG. 3A and incubated in Eagle's minimum essential medium (EMEM) medium including 10% fetal bovine serum (FBS) for 24 hours in an incubator at 37° C. and 5% CO2.\n(2) After replacing with serum-free EMEM medium, the medium was incubated for 24 hours.\n(3) The plates were then treated with TGF-β (10 ng/ml) to induce fibrosis and incubated for 24 hours.\n(4) Afterwards, each well of the plate was then treated with the composition of the present disclosure at rhHAPLN1 protein content of 0, 3, 10, 30, and 100 ng/ml and pirfenidone 100 μg/mL and 200 μg/mL, respectively, and incubated for 24 hours.\n(5) Each sample was then treated with cell lysis buffer and harvested.\n(6) Western blot was performed on the samples. Here, anti-αSMA Ab (Abcam, ab7817), anti-GAPDH Ab (Santa Cruz, sc-32233) were used as primary antibodies and HRP-conjugated anti-mouse IgG Ab (CST, #7076) as secondary antibodies to confirm the protein expression levels of αSMA and GAPDH."}, "[2]": {"tested_on": "ischemia/reperfusion-induced kidney fibrosis", "experiment": "Ischemia/reperfusion kidney fibrosis mouse model", "format": "in vivo", "description": "According to the experimental scheme of FIG. 14A, 8-week-old C57BL/6 male mice were subjected to pentobarbital (50 mg/kg BW, i.p.) anesthesia, a flank incision was made to induce ischemia, the kidneys were exposed, and blood flow was blocked for 25 minutes by clamping the bilateral renal pedicles using a non-traumatic microaneurysm clamp (Roboz Surgical Instruments). The clamps were then removed and the incisions were sutured. The sham-operation was performed in the same manner as the ischemia/reperfusion experiment, except for the blockage of blood flow.\nOne day after ischemia, blood urea nitrogen (BUN) was measured, and only mice whose value rose above about 98 mg/dL (specified as 100 mg/dl from now on) were grouped into experimental groups and the experiment was conducted. The experimental groups were administered various drugs, including the composition of the present disclosure, daily from day 7 after surgery, and the kidneys were harvested on day 14 for histologic and biochemical analysis.\nIn addition, blood was taken on day 7 after drug administration to measure BUN concentration, and 14 days later, blood and urine were taken to measure creatinine concentration in blood and urine and BUN concentration in blood. Additionally, creatinine clearance was calculated.\nBiochemical analysis (evaluation of fibrosis index expression): To confirm the expression of αSMA in kidney tissue, western blot was performed using antibodies against αSMA.\nTo confirm the expression of αSMA in sham-operation (Sham) and ischemia/reperfusion (IR) mouse kidney tissue, samples from each experimental group were loaded onto a single gel, western blot was performed, and the density of each band was measured. Ponceau and GADPH were utilized as equal loading markers (FIG. 14B). Where SV; sham-vehicle, SB; sham-rhHAPLN1-dissolving solution, IRV; IR-vehicle, IRP; IR-pirfenidone, IRA; IR-composition of the present disclosure (rhHAPLN1) A, IRB; IR-composition of the present disclosure (rhHAPLN1) B, IRC; IR-composition of the present disclosure (rhHAPLN1) C, respectively, and more details are shown in Table 1 and Table 2 above. More specifically, the Sham-vehicle is a group in which only the rhHAPLNB1-free buffer solution was diluted in PBS and IP-injected into the Sham control group. Sham-rhHAPLN1-dissolving solution is a group in which rhHAPLN1 concentration B (0.02 mg/kg) was diluted and IP injected to confirm the effect of rhHAPLN1 under normal conditions. […] IR-pirfenidone is a group in which 300 mg/kg of pirfenidone was administered orally after induction of I/R fibrosis.\nIn addition, the fold change in expression level for IRV in relation to αSMA expression was graphed (FIG. 14C).\nAs part of the histological analysis of fibrosis, paraffin-fixed kidneys were cut into 3 μm sections, and Sirus red and PAS staining were performed on these slide sections to assess collagen expression and fibrotic lesions in the tissue, respectively (FIG. 14D). Where SV; sham-vehicle, SB; sham-rhHAPLN1-dissolving solution, IRV; IR-vehicle, IRP; IR-pirfenidone, IRA; IR-composition of the present disclosure (rhHAPLN1) concentration 0.1 mg/kg, IRB; IR- the composition of the present disclosure (rhHAPLN1) at a concentration of 0.02 mg/kg, IRC; IR-the composition of the present disclosure (rhHAPLN1) at a concentration of 0.004 mg/kg, respectively.\nIn addition, in order to quantify the expression of collagen in the above-mentioned tissue, two of the outer medulla areas of the kidney were randomly imaged in the tissue staining photograph of FIG. 14D, and collagen-positive area was marked. Here, the red color is a sirus red positive signal (FIG. 14E).\nAs an experiment to analyze kidney function, blood was taken through a glass capillary tube with heparin added through the retroorbital vein plexus, and urine was obtained using a metabolic cage. Blood urea nitrogen and creatinine (plasma creatinine, PCr) concentrations were measured using Vitros250 (Johnson & Johnson). […]"}, "[3]": {"tested_on": "human kidney renal tubule cell (Human Kidney 2, HK-2)", "experiment": "Cell morphological changes of TGFβ1-treated HK-2 cells", "format": "cell-based", "details": "TGFβ1 10 ng/ml 24 h", "description": "(1) Human kidney renal tubule cells (HK-2) were seeded (3.0×10^5 cells/well) in a 6-well plate according to the experimental scheme of FIG. 8A and incubated in RPMI 1640 Medium (11875-093, Gibco) including 10% FBS for 24 hours in an incubator at 37° C. 5% CO2.\n(2) Afterwards, the plates were washed several times with PBS, and each well of the plate was treated with TGFβ1 (10 ng/ml) and incubated for 24 hours.\n(3) Subsequently, the plates were then treated with the composition of the present disclosure (rhHAPLN1 protein content of 0, 5, 10, 20, 50 and 100 ng/ml) and pirfenidone 0.2 mg/mL (200 μg/mL), respectively, and incubated for 24 hours.\n(4) The wells containing each sample were then washed twice with 1×PBS, treated with 4% paraformaldehyde and fixed for 1 hour.\n(5) After washing twice with 1×PBS, the shape or morphology of the cells was observed under a microscope."}, "[4]": {"details": "IRP: pirfenidone 300 mg/kg B.W oral"}, "[5]": {"details": "IRA: rhHAPLN1 0.1 mg/kg B.W intraperitoneal"}, "[6]": {"details": "IRB: rhHAPLN1 0.02 mg/kg B.W intraperitoneal"}}}
{"molecule": "Cc1ccc(=O)n(-c2ccccc2)c1", "note": "[pirfenidone, reference compound]", "values": [{"measurement": "inhibition at 100 µg/mL", "setting": "[1]; Homo sapiens, CCD-18Co, pirfenidone 100 μg/mL", "result": 10.6, "unit": "%"}, {"measurement": "relative level of αSMA (value used in the inhibition formula; TGFβ1 alone 3.82, untreated 1)", "setting": "[1]; pirfenidone 100 μg/mL", "result": 3.52}, {"measurement": "expression level of αSMA at 200 μg/mL versus 100 μg/mL", "setting": "[1]; pirfenidone 200 μg/mL", "result": "higher expression level of αSMA than 100 μg/mL"}, {"measurement": "collagen positive area compared to IRV, quantified with i-Solution (FIG. 14F)", "setting": "[2]; [4]", "result": "weaker"}, {"measurement": "expression of collagen compared to IRV, blinded test of stained photographs (FIG. 14D)", "setting": "[2]; [4]", "result": "weaker"}, {"measurement": "cell morphology after TGFβ1-induced sharp fibrotic form (FIG. 8B)", "setting": "[3]; then pirfenidone 0.2 mg/mL 24 h", "result": "round"}]}
{"molecule": "rhHAPLN1: recombinant human HAPLN1 protein of SEQ ID NO: 1 produced in CHO-K1 cells, stabilized in acetic acid buffer, sucrose, PS80, pH 5.0 (protein, listed as Homo sapiens) MKSLLLLVLISICWADHLSDNYTLDHDRAIHIQAENGPHLLVEAEQAKVFSHRGGNVTLPCKFYRDPTAFGSGIHKIRIKWTKLTSDYLKEVDVFVSMGYHKKTYGGYQGRVFLKGGSDSDASLVITDLTLEDYGRYKCEVIEGLEDDTVVVALDLQGVVFPYFPRLGRYNLNFHEAQQACLDQDAVIASFDQLYDAWRGGLDWCNAGWLSDGSVQYPITKPREPCGGQNTVPGVRNYGFWDKDKSRYDVFCFTSNFNGRFYYLIHPTKLTYDEAVQACLNDGAQIAKVGQIFAAWKILGYDRCDAGWLADGSVRYPISRPRRRCSPTEAAVRFVGFPDKKHKLYGVYCFRAYN", "values": [{"measurement": "expression level of αSMA compared to composition that does not include rhHAPLN1 protein (FIG. 3C)", "setting": "[1]; TGFβ1 10 ng/ml 24 h, then rhHAPLN1 3, 10, 30, 100 ng/ml 24 h", "result": "significantly lower"}, {"measurement": "anti-fibrotic action from αSMA western blot band, compared to pirfenidone (FIG. 3B)", "setting": "[1]; all rhHAPLN1 contents, pirfenidone 100 and 200 μg/mL", "result": "much better anti-fibrotic action compared to pirfenidone"}, {"measurement": "anti-fibrotic efficacy of rhHAPLN1 relative to pirfenidone at 100 μg/mL", "setting": "[1]; rhHAPLN1 10 ng/ml", "result": "approximately 7 folds"}, {"measurement": "anti-fibrotic efficacy relative to pirfenidone at 200 μg/mL", "setting": "[1]; rhHAPLN1 10 ng/ml", "result": "much higher than twice"}, {"measurement": "inhibition of TGFβ1-induced αSMA", "setting": "[1]; rhHAPLN1 10 ng/ml", "result": 71.6, "unit": "%"}, {"measurement": "relative level of αSMA (value used in the inhibition formula; TGFβ1 alone 3.82, untreated 1)", "setting": "[1]; rhHAPLN1 10 ng/ml", "result": 1.8}, {"measurement": "rhHAPLN1 protein content showing the most excellent anti-fibrotic efficacy", "setting": "[1]; αSMA", "result": 10, "unit": "ng/mL"}, {"measurement": "collagen positive area compared to IRV, quantified with i-Solution (FIG. 14F)", "setting": "[2]; [5]", "result": "weaker"}, {"measurement": "expression of collagen compared to IRV, blinded test of stained photographs (FIG. 14D)", "setting": "[2]; [5]", "result": "weaker"}, {"measurement": "expression of αSMA in kidney compared to IRV (FIG. 14C)", "setting": "[2]; [5]", "result": "lowered to pirfenidone-like levels"}, {"measurement": "collagen positive area compared to IRV, quantified with i-Solution (FIG. 14F)", "setting": "[2]; [6]", "result": "weaker"}, {"measurement": "expression of collagen compared to IRV, blinded test of stained photographs (FIG. 14D)", "setting": "[2]; [6]", "result": "weaker"}, {"measurement": "expression of αSMA in kidney compared to IRV (FIG. 14C)", "setting": "[2]; [6]", "result": "lowered to pirfenidone-like levels"}, {"measurement": "expression of αSMA in kidney compared to IRV (FIG. 14C)", "setting": "[2]; IRC: rhHAPLN1 0.004 mg/kg B.W intraperitoneal", "result": "as high as the IRV"}, {"measurement": "cell morphology after TGFβ1-induced sharp fibrotic form (FIG. 8B)", "setting": "[3]; then rhHAPLN1 5-100 ng/ml 24 h", "result": "the shape of the cells changed to round"}]}
